This assay deals with extracellular domain of Toll-like receptor 4 (TLR4) (UniProt O00206 24-631). As to the kind of experiment: ITC. (Isothermal titration calorimetry measures the heat released or taken up as one component is titrated into another.)
Sequence of extracellular domain of Toll-like receptor 4 (TLR4) (O00206 24-631): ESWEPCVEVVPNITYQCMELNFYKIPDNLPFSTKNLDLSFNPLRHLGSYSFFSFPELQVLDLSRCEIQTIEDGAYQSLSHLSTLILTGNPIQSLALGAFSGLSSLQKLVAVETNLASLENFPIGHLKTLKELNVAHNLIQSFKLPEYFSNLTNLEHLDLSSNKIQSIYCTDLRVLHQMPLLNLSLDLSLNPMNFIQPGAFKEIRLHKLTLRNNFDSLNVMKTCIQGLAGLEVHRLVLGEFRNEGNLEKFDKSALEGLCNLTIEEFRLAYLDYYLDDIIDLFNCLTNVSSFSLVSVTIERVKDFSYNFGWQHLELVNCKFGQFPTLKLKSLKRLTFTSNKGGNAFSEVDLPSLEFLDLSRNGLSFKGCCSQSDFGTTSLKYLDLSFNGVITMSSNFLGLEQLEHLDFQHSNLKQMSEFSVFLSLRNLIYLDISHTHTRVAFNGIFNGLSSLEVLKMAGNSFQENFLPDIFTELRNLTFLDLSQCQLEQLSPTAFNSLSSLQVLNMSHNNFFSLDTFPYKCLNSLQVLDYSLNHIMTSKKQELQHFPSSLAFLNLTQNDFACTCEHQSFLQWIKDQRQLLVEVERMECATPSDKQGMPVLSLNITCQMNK

B1: Cold-inducible RNA binding protein (CIRP) (natural protein, UniProt Q14011 1-172, looked up)
chain: MASDEGKLFVGGLSFDTNEQSLEQVFSKYGQISEVVVVKDRETQRSRGFGFVTFENIDDAKDAMMAMNGKSVDGRQIRVDQAGKSSDNRSRGYRGGSAGGRGFFRGGRGRGRGFSRGGGDRGYGGNRFESRSGGYGGSRDYYSSRSQSGGYSDRSSGGSYRDSYDSYATHNE
modifications: 15N-labeled (in the NMR titration)
The Kd is the free concentration of one partner at which half of the binding sites on the other are occupied at equilibrium, for simple one-to-one binding. A higher Kd goes with lower affinity. B1 showed a Kd of 3.72 ± 1.98 µM.

Values taken from article PMC10285643 (iScience, 2023).
